Assay [1] addresses human coxsackie-adenovirus receptor (CAR) stably expressed on CHO-hCAR cells (human) (UniProt P78310).
Assay [2] shares this target. In words: cell-based or functional assay.
The target of assay [3] is T1, human coxsackie-adenovirus receptor (CAR) stably expressed on CHO-hCAR cells (human, UniProt P78310 20-365).
T1 sequence: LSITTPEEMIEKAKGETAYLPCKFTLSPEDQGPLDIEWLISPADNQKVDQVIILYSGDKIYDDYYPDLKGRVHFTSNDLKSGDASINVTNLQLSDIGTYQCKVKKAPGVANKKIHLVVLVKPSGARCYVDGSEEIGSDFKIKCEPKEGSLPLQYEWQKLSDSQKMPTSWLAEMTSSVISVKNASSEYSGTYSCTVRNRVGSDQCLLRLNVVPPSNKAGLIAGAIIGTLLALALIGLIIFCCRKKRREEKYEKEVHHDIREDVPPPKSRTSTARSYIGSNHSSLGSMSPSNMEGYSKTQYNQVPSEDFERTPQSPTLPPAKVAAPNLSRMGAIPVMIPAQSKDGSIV
As to the kind of experiment: cell-based or functional assay.

In assay [1], “recombinant HAdV-5 fiber knob protein (from UniProt P11818 387-581)” displayed an IC50 (read off the curve); inhibition of luciferase gene transfer of Ad5Luc1 into CHO-hCAR cells of 1 µg/mL. The molecule also displayed an inhibition of Ad5Luc1 gene transfer to CHO-hCAR cells by knob protein at 50 µg/ml in assay [2] of more than 96%.

B1: Ad5Luc1 control vector containing the HAdV-5 wild type fiber (other)
chain: MKRARPSEDTFNPVYPYDTETGPPTVPFLTPPFVSPNGFQESPPGVLSLRLSEPLVTSNGMLALKMGNGLSLDEAGNLTSQNVTTVSPPLKKTKSNINLEISAPLTVTSEALTVAAAAPLMVAGNTLTMQSQAPLTVHDSKLSIATQGPLTVSEGKLALQTSGPLTTTDSSTLTITASPPLTTATGSLGIDLKEPIYTQNGKLGLKYGAPLHVTDDLNTLTVATGPGVTINNTSLQTKVTGALGFDSQGNMQLNVAGGLRIDSQNRRLILDVSYPFDAQNQLNLRLGQGPLFINSAHNLDINYNKGLYLFTASNNSKKLEVNLSTAKGLMFDATAIAINAGDGLEFGSPNAPNTNPLKTKIGHGLEFDSNKAMVPKLGTGLSFDSTGAITVGNKNNDKLTLWTTPAPSPNCRLNAEKDAKLTLVLTKCGSQILATVSVLAVKGSLAPISGTVQSAHLIIRFDENGVLLNNSFLDPEYWNFRNGDLTEGTAYTNAVGFMPNLSAYPKSHGKTAKSNIVSQVYLNGDKTKPVTLTITLNGTQETGDTTPSAYSMSFSWDWSGHNYINEIFATSSYTFSYIAQE
For the molecule B1, in assay [3], the “luciferase activity in CHO-hCAR cells versus CHO cells (gene transfer assay)” value stood at 80 fold.
